Test results published in US10780117.

Biological target: Myc-tagged CRT expressed in J774 cells
Sequence (P27797 18-417): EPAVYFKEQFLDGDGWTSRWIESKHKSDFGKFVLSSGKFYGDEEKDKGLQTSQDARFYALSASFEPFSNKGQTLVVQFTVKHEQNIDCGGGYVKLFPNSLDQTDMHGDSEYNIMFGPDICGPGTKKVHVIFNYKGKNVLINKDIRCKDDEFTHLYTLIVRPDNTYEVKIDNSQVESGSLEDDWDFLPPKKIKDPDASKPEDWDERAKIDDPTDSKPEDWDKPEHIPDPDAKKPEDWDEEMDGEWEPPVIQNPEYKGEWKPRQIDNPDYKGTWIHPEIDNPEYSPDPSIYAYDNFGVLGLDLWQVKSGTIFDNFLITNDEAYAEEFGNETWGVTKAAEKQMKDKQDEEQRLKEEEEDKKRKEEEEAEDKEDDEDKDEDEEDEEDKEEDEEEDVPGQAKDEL

B1: Bruton's tyrosine kinase (Btk) in J774 mouse macrophage cells (protein)
chain: AAVILESIFLKRSQQKKKTSPLNFKKRLFLLTVHKLSYYEYDFERGRRGSKKGSIDVEKITCVETVIPEKNPPPERQIPRRGEESSEMEQISIIERFPYPFQVVYDEGPLYVFSPTEELRKRWIHQLKNVIRYNSDLVQKYHPCFWIDGQYLCCSQTAKNAMGCQILENRNGSLKPGSSHRKTKKPLPPTPEEDQILKKPLPPEPTAAPISTTELKKVVALYDYMPMNANDLQLRKGEEYFILEESNLPWWRARDKNGQEGYIPSNYITEAEDSIEMYEWYSKHMTRSQAEQLLKQEGKEGGFIVRDSSKAGKYTVSVFAKSTGEPQGVIRHYVVCSTPQSQYYLAEKHLFSTIPELINYHQHNSAGLISRLKYPVSKQNKNAPSTAGLGYGSWEIDPKDLTFLKELGTGQFGVVKYGKWRGQYDVAIKMIREGSMSEDEFIEEAKVMMNLSHEKLVQLYGVCTKQRPIFIITEYMANGCLLNYLREMRHRFQTQQLLEMCKDVCEAMEYLESKQFLHRDLAARNCLVNDQGVVKVSDFGLSRYVLDDEYTSSVGSKFPVRWSPPEVLMYSKFSSKSDIWAFGVLMWEIYSLGKMPYERFTNSETAEHIAQGLRLYRPHLASERVYTIMYSCWHEKADERPSFKILLSNILDVMDEES
tyrosine phosphorylation of immunoprecipitated myc-CRT (immunoblot with anti-phosphotyrosine antibody): Immunoblot showing CRT phosphorylation upon Btk activation
